These results are taken from US20220372463A1.

The assay deals with Streptococcus pyogenes Cas9 endonuclease (Streptococcus pyogenes) (UniProt Q99ZW2). Nature of the assay: cell-based or functional assay.

As for “AcrIIA4 D14A/G38A as the auto-inhibitory domain of CascAID D14A/G38A”, the fold decrease of the transition rate to the inhibited state relative to CascAID with wild-type AcrIIA4 was determined as 19 fold, the kact (constant activation parameter for all CascAID variants; best fit of the ODE model to editing data) came out at 1.13 h⁻¹ and the γ4 (inhibitor strength: fold-change relative to the inhibition rate of CascAID wt; best fit of the ODE model) amounted to 0.0519 unitless.

Regarding “AcrIIA4 N39A as the auto-inhibitory domain of CascAID N39A”, the fold decrease of the transition rate to the inhibited state relative to CascAID with wild-type AcrIIA4 is 16 fold, the kact (constant activation parameter for all CascAID variants; best fit of the ODE model to editing data) came out at 1.13 h⁻¹ and the γ3 (inhibitor strength: fold-change relative to the inhibition rate of CascAID wt; best fit of the ODE model) is 0.0609 unitless.

In the case of “wild-type AcrIIA4 as the auto-inhibitory domain of CascAID wt (Cas9 fused to wild-type AcrIIA4)”, the kact (constant activation parameter for all CascAID variants; best fit of the ODE model to editing data) is 1.13 h⁻¹ and the kinh, CascAID (inhibition parameter for CascAID wt; best fit of the ODE model to editing data; marked not identifiable) amounted to 618 h⁻¹.
